Assay results reported in patent US20240067758A1 (UCB, published 2024).
Substitutions are numbered along the chain they refer to. In names and notes the source's numbering stands. Several values for one entry are separate records, joined by “and”; a condition that tells them apart may be missing. Identical values can stand only once. Blank lines part the entries; values can stand above or below the binder they belong to.

Legend:
Human IL22 [1] = molecular target: T1, Human IL22 (human, UniProt Q9GZX6 34-179); assay: SPR (Biacore); Fab variant, human IL22
T1 construct: IL22 of the Biacore and cell assays
T1 sequence: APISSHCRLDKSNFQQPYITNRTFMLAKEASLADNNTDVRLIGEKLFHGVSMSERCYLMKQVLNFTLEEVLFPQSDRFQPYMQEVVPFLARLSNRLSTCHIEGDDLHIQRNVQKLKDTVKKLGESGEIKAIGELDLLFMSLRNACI

Human IL22 [2] = molecular target: T1, Human IL22; assay: SPR Biacore 8K; Fab captured on anti-human F(ab')2, human IL22 titrated 617 pM-50 nM; single experiment
Procedure: The assay was run on Biacore 8K instrument (GE Healthcare) and BIA (Biomolecular Interaction Analysis) was performed using Biacore 8000 evaluation software Affinipure Goat anti-human IgG-F(ab′)2 fragment specific (Jackson ImmunoResearch) was immobilized on a CM5 Sensor Chip via amine coupling chemistry to a capture level of ˜5000 response units (RUs). HBS-EP+ buffer (10 mM HEPES pH 7.4, 0.15 M NaCl, 3 mM EDTA, 0.05% Surfactant P20, GE Healthcare) was used as the running buffer with a flow rate of 10 μL/min.
The surface was generated by 2×10 μL injections of 50 mM HCl, interspersed by a 5 μL injection of 5 mM NaOH at flowrate of 10 μL/min. Background subtraction binding curves were analyzed using the Insight evaluation software following standard procedures. Kinetic parameters were determined from the fitting algorithm.

Human IL22 [3] = molecular target: T1, Human IL22; assay: SPR
Human IL22 [4] = molecular target: T1, Human IL22; assay: SPR (Biacore); human IL22
Human IL22 [5] = molecular target: T1, Human IL22; assay: cell-based or functional assay
Human IL22 [6] = molecular target: T1, Human IL22; assay: cell-based or functional assay; remark: listed apart in the source
Human IL13 [7] = molecular target: T2, Human IL13 (human, UniProt P35225 35-146, limits assumed); assay: cell-based or functional assay
Human IL13 [8] = molecular target: T2, Human IL13; assay: cell-based or functional assay; remark: listed apart in the source
Human IL13 [9] = molecular target: T2, Human IL13; assay: cell-based or functional assay; remark: listed apart in the source
Human IL22 [10] = molecular target: T1, Human IL22; assay: cell-based or functional assay; remark: listed apart in the source
Human IL22 [11] = molecular target: T1, Human IL22; assay: cell-based or functional assay; remark: listed apart in the source
Human IL13 [12] = molecular target: T2, Human IL13; assay: cell-based or functional assay; remark: listed apart in the source
Human IL13 [13] = molecular target: T2, Human IL13; assay: cell-based or functional assay; remark: listed apart in the source
Human IL22 [14] = molecular target: T1, Human IL22; assay: SPR (Biacore); Fab variant, human IL22; remark: listed apart in the source
Human IL22 [15] = molecular target: T1, Human IL22; assay: SPR Biacore T200; mean KD
Procedure: BIA (Biomolecular Interaction Analysis) was performed using T200 (GE Healthcare). Affinipure IgG-F(ab′)₂ Fragment goat anti-human IgG, F(ab′)₂ fragment specific (Jackson ImmunoResearch) was immobilized on a CM5 Sensor Chip via amine coupling chemistry to a capture level of ˜5000 response units (RUs). HBS-EP+buffer (10 mM HEPES pH 7.4, 0.15 M NaCl, 3 mM EDTA, 0.05% Surfactant P20, GE Healthcare) was used as the running buffer with a flow rate of 10 μL/min.
The surface was generated by 2×10 μL injections of 50 mM HCl, interspersed by a 10 μL injection of 5 mM NaOH at flowrate of 10 μL/min. Background subtraction binding curves were analyzed using the T200 evaluation software (version 3.0) following standard procedures. Kinetic parameters were determined from the fitting algorithm.

Human IL22 [16] = molecular target: T1, Human IL22; assay: SPR Biacore T200; Fab captured on anti-rabbit F(ab')2, IL22 titrated 0.6-50 nM
Procedure: (§1) HBS-EP+ buffer (10 mM HEPES pH 7.4, 0.15 M NaCl, 3 mM EDTA, 0.05% Surfactant P20, GE Healthcare) was used as the running buffer with a flow rate of 10 μL/min.
(§2) The surface was generated by 2×10 μL injection of 50 mM HCl, interspersed by a 10 μL injection of 5 mM NaOH at flowrate of 10 μL/min. Background subtraction binding curves were analyzed using the Biacore T200 evaluation software following standard procedures. Kinetic parameters were determined from the fitting algorithm.

Cynomolgus IL22 = molecular target: T3, Cynomolgus IL22 (cynomolgus, UniProt G7PHZ7 34-179); assay: as above
T3 construct: also called Cyno IL22; Cyno IL-22
T3 sequence: T1 sequence with I3V, L32S, H48R, F72L, R95S, R110K
Procedure: as §1, §2

Mouse IL22 = molecular target: T4, Mouse IL22 (mouse, UniProt Q9JJY9 34-179); assay: as above
T4 sequence (looked up): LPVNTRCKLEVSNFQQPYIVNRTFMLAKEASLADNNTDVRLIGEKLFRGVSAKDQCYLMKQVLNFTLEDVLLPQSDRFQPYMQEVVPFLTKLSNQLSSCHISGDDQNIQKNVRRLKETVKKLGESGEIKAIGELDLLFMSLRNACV
Procedure: as §1, §2

Human IL22 [17] = molecular target: T1, Human IL22; assay: SPR (Biacore); human IL22; remark: listed apart in the source

- Kd (Human IL22 [1]): 12.5 pM
- Kd (Human IL22 [2]): 12.5 pM
- kon (Human IL22 [2]): 1.01e+06 M⁻¹ s⁻¹
B1: 11041gL13gH14 Fab (Fab, V domains shown)
VH: EVQLVESGGGLVQPGGSLRLSCAVSGFSLSSYAMIWVRQAPGKGLEWIGIIDIEGSTYYASWAKGRFTISRDNSKNTVYLQMNSLRAEDTAVYYCARDRFVGVDIFDPWGQGTLVTVSS
VL: AVQLTQSPSSLSASVGDRVTITCQASEDIYTNLAWYQQKPGKAPKLLIYWASTLASGVPSRFSGSGSGTDFTLTISSLQPEDFATYYCQASVYGNAADSRYTFGGGTKVEIKR
notes: also called 11041gL6 C91S S96A gH5 D54E

- fold increase in binding affinity against 11041gL1gH1 (Human IL22 [3]): 50 fold
- Kd (Human IL22 [1]): 12.4 pM
B2: 11041gL1 C91S gH1 (Fab, V domains shown)
VH: B1 VH with E54D, N73S
VL: AVVLTQSPSSLSASVGDRVTITCQASEDIYTNLAWYQQKPGKAPKLLIYWASTLASGVPSRFSGSGSGTDFTLTISSLQPEDFATYYCQASVYGNSADSRYTFGGGTKVEIK
notes: V-regions only; also called 11041gL2gH1

- fold increase in binding affinity against 11041gL1gH1 (Human IL22 [3]): 15 fold
- Kd (Human IL22 [1]): 41.9 pM
B3: 11041gL1 C91V gH1 (Fab, V domains shown)
VH: B1 VH with E54D, N73S
VL: B2 VL with S91V
notes: V-regions only; also called 11041gL3gH1

- Kd (Human IL22 [4]): 49 pM
B4: 11070 (Fab, V domains shown)
VH: EVQLQESGPGLVQPSQTLSPTCTVSGFSLTSYSVHWVRQHSGKSLEWMGRMWSDGDTSYNSAFTSRLSITRDTSKSQVFLKMNSLQTEDTGTYYCARSLDFYYDTTLAFWGPGTTVTVSS
VL: DIVMTQTPSNLAASPGESVSINCKASKTISKYLAWYQQKPGKANKLLIYSGSTLQSGTPSRFSGSGSSTDFTLTIRNLEPEDFGLYYCQQHNEYPLTFGSGTKLEIK

- IC50 (M) Geomean; IL22-induced IL-10 release, COLO205 cells; PB8919 (N = 2) (Human IL22 [5]): 5.73e-11 M
- IC50 (M) Geomean; IL22-induced IL-10 release, COLO205 cells; PB8842 (N = 2) (Human IL22 [6]): 7.13e-11 M
- IC50 (pM) Geomean, N = 2; STAT-6 reporter assay, HEK-Blue IL-4/IL13 cells; PB8842 (Human IL13 [7]): 4.9 pM
- IC50 (pM), concatenated IC50 values; STAT-6 reporter assay; PB8842 (Human IL13 [7]): 4.6 pM and 5.2 pM
- IC50 (pM) Geomean, N = 2; STAT-6 reporter assay, HEK-Blue IL-4/IL13 cells; PB8919 (Human IL13 [8]): 2.3 pM
- IC50 (pM), concatenated IC50 values; STAT-6 reporter assay; PB8919 (Human IL13 [8]): 2 pM and 2.7 pM
- IC50 (read off the curve), inhibition of eotaxin-3 secretion, primary human keratinocytes stimulated with IL-13 and IL-22 at 100 ng/ml (Human IL13 [9]): ~800 pM
B5: IL13H/IL22K knob in hole bispecific (bispecific antibody, human IgG4 S228P, kappa)
heavy 1: not shown
light 1: AVQLTQSPSSLSASVGDRVTITCQASEDIYTNLAWYQQKPGKAPKLLIYWASTLASGVPSRFSGSGSGTDFTLTISSLQPEDFATYYCQASVYGNAADSRYTFGGGTKVEIKRTVAAPSVFIFPPSDEQLKSGTASVVCLLNNFYPREAKVQWKVDNALQSGNSQESVTEQDSKDSTYSLSSTLTLSKADYEKHKVYACEVTHQGLSSPVTKSFNRGEC
heavy 2: EVQLVQSGAEVKKPGSSVKVSCKASGYSFTSYYIHWVRQAPGQGLEWMGRIGPGSGDINYNEKFKGRATFTVDKSTSTAYMELSSLRSEDTAVYYCARFHYDGADWGQGTLVTVSSASTKGPSVFPLAPCSRSTSESTAALGCLVKDYFPEPVTVSWNSGALTSGVHTFPAVLQSSGLYSLSSVVTVPSSSLGTKTYTCNVDHKPSNTKVDKRVESKYGPPCPPCPAPEFLGGPSVFLFPPKPKDTLMISRTPEVTCVVVDVSQEDPEVQFNWYVDGVEVHNAKTKPREEQFNSTYRVVSVLTVLHQDWLNGKEYKCKVSNKGLPSSIEKTISKAKGQPREPQVYTLPPSQEEMTKNQVSLSCAVKGFYPSDIAVEWESNGQPENNYKTTPPVLDSDGSFFLVSRLTVDKSRWQEGNVFSCSVMHEALHNHYTQKSLSLSLGK
light 2: DIQMTQSPSSLSASVGDRVTITCKASQNINENLDWYQQKPGKAPKLLIYYTDILQTGIPSRFSGSGSGTDYTLTISSLQPEDFATYYCYQYYSGYTFGQGTKLEIKRTVAAPSVFIFPPSDEQLKSGTASVVCLLNNFYPREAKVQWKVDNALQSGNSQESVTEQDSKDSTYSLSSTLTLSKADYEKHKVYACEVTHQGLSSPVTKSFNRGEC

- IC50 (M) Geomean; IL22-induced IL-10 release, COLO205 cells; PB8920 (N = 2) (Human IL22 [10]): 6.38e-11 M
- IC50 (M) Geomean; IL22-induced IL-10 release, COLO205 cells; PB8841 (N = 2) (Human IL22 [11]): 6.59e-11 M
- IC50 (pM) Geomean, N = 2; STAT-6 reporter assay, HEK-Blue IL-4/IL13 cells; PB8920 (Human IL13 [12]): 2.9 pM
- IC50 (pM), concatenated IC50 values; STAT-6 reporter assay; PB8920 (Human IL13 [12]): 2.1 pM and 4 pM
- IC50 (pM) Geomean, N = 2; STAT-6 reporter assay, HEK-Blue IL-4/IL13 cells; PB8841 (Human IL13 [13]): 3.4 pM
- IC50 (read off the curve), inhibition of eotaxin-3 secretion, primary human keratinocytes stimulated with IL-13 and IL-22 at 100 ng/ml (Human IL13 [9]): ~5000 pM
B6: IL13K/IL22H knob in hole bispecific (bispecific antibody, human IgG4 S228P, kappa)
heavy 1: not shown
light 1: B5 light 2
heavy 2: EVQLVESGGGLVQPGGSLRLSCAVSGFSLSSYAMIWVRQAPGKGLEWIGIIDIEGSTYYASWAKGRFTISRDNSKNTVYLQMNSLRAEDTAVYYCARDRFVGVDIFDPWGQGTLVTVSSASTKGPSVFPLAPCSRSTSESTAALGCLVKDYFPEPVTVSWNSGALTSGVHTFPAVLQSSGLYSLSSVVTVPSSSLGTKTYTCNVDHKPSNTKVDKRVESKYGPPCPPCPAPEFLGGPSVFLFPPKPKDTLMISRTPEVTCVVVDVSQEDPEVQFNWYVDGVEVHNAKTKPREEQFNSTYRVVSVLTVLHQDWLNGKEYKCKVSNKGLPSSIEKTISKAKGQPREPQVYTLPPSQEEMTKNQVSLSCAVKGFYPSDIAVEWESNGQPENNYKTTPPVLDSDGSFFLVSRLTVDKSRWQEGNVFSCSVMHEALHNHYTQKSLSLSLGK
light 2: B5 light 1

- Kd (Human IL22 [14]): 31.7 pM
B7: 11070gL1gH13 (Fab, V domains shown)
VH: EVQLQESGPGLVKPSQTLSLTCTVSGFSLTSYSVHWVRQHSGKGLEWMGRMWSDGDTSYNTAFTSRLTISRDTSKSQVSLKLSSVTAADTAVYYCARSLDFYYDTTLAFWGQGTTVTVSS
VL: DIVMTQSPSSVSASVGDRVTITCKASKTISKYLAWYQQKPGKANKLLIYSGSTLQSGTPSRFSGSGSSTDFTLTISSLQPEDFATYYCQQHNEYPLTFGQGTKLEIK
notes: V-regions only; also called 11070gL1gH1 S61T

- Kd (Human IL22 [14]): 25.7 pM
B8: 11070gL7gH16 Fab (Fab, V domains shown)
VH: B7 VH with S41P, M48I, S76N
VL: DIQMTQSPSSVSASVGDRVTITCKASKTISKYLAWYQQKPGKANKLLIYSGSTLQSGVPSRFSGSGSGTDFTLTISSLQPEDFATYYCQQHNEYPLTFGQGTKLEIKR
notes: also called VR11070

- Kd (Human IL22 [14]): 36.8 pM
B9: 11070gL1gH1 (Fab, V domains shown)
VH: B7 VH with T61S
VL: B7 VL
notes: V-regions only

- Kd (Human IL22 [15]): < 100 pM
B10: TrYbe molecule with 11070 gL7gH16 IL22 domain (other)
VL: B7 VL with V3Q, T58V, S68G
VH: B7 VH with S41P, M48I, S76N

- Kd (Human IL22 [16]): 340 pM
- koff (Human IL22 [16]): 0.00029 s⁻¹
- kon (Human IL22 [16]): 870000 M⁻¹ s⁻¹
- Kd (Cynomolgus IL22): 1100 pM
- koff (Cynomolgus IL22): 0.00028 s⁻¹
- kon (Cynomolgus IL22): 260000 M⁻¹ s⁻¹
- Kd (Mouse IL22): 3000 pM
- koff (Mouse IL22): 0.11 s⁻¹
- kon (Mouse IL22): 3.7e+07 M⁻¹ s⁻¹
B11: Rabbit 11041 Fab (Fab, V domains shown)
VH: QSVEESGGRLVTPGTPLTLTCTVSGFSLSSYAMIWVRQAPGEGLEWIGIIDIDGSTYYASWAKGRFTISRTSTTVDLKITSPTTGDTATYFCARDRFVGVDIFDPWGPGTLVTVSS
VL: AVVLTQTASPVSAPVGGTVTIKCQASEDIYTNLAWYQQKPGQPPKLLIYWASTLASGVPSRFKGSGSGTEFTLTISDLECADAATYYCQACVYGNSADSRYTFGGGTEVVVK
notes: Rabbit Fab

- Kd (Human IL22 [17]): 569 pM
B12: 11041 (parental) (Fab, V domains shown)
VH: B11 VH
VL: B11 VL
